# Data from publication PMC4561382, “Aven recognition of RNA G-quadruplexes regulates translation of the mixed lineage leukemia protooncogenes”.
# T1: Aven DiRGG peptide (human, UniProt Q9NQS1)
# T1 chain: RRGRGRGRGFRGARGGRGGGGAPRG
# T2: Aven TriRG peptide (human, UniProt Q9NQS1)
# T2 chain: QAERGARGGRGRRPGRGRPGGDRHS
# What was measured:
# Aven DiRGG peptide = biological target: T1, Aven DiRGG peptide; assay: fluorescence plate binding (immobilized peptide); K+-folded RNA; joint range (173-200 in author response); RNA folded in 10 mM Tris-acetate pH 7.7, 200 mM K-acetate, 5 mM Mg-acetate (75 C 10 min, 21 C 5 min); peptide assay 1 h at room temperature, washes in this buffer; pull-down 100 nM RNA in cell lysate with 2 mg/ml heparin, 1 h on ice, beads 30 min at 4 C; details: tags: N-terminal biotin; G4
# Aven TriRG peptide = biological target: T2, Aven TriRG peptide; assay: fluorescence plate binding (immobilized peptide); K+-folded RNA; range given jointly for TriRG and TriRGme; RNA folded in 10 mM Tris-acetate pH 7.7, 200 mM K-acetate, 5 mM Mg-acetate (75 C 10 min, 21 C 5 min); peptide assay 1 h at room temperature, washes in this buffer; pull-down 100 nM RNA in cell lysate with 2 mg/ml heparin, 1 h on ice, beads 30 min at 4 C; details: tags: N-terminal biotin; G4
binder,measurement,setting,value
GCUGCGGUGUGGAAGGAGUGGUCGGGUUGCGCAGCG (structured_RNA) [sc1 G4 (fluorescein)],Kd,Aven DiRGG peptide,~187 nM
same,Kd,Aven TriRG peptide,~84.8 nM
